Test results taken from publication PMC10267580, “Structural basis of ELKS/Rab6B interaction and its role in vesicle capturing enhanced by liquid-liquid phase separation” (The Journal of Biological Chemistry, 2023).

B1: ELKS1 C-terminal coiled-coil region (residues 761-927) (domain or fragment, rat, UniProt Q811U3 761-927, looked up)
chain: QVKDQNKKVANLKHKEQVEKKKSAQMLEEARRREDSLSDSSQQLQVEELLMAMEKVKQELESMKAKLSSTQQSLAEKETHLTNLRAERRKHLEEVLEMKQEALLAAISEKDANIALLELSSSKKKTQEEVAALKREKDRLVQQLKQQTQNRMKLMADNYEDDHFRSS
notes: ELKS1 (Rab6IP2, CAST, ERC), rat, GenBank AY174115.1, residues 761-927; also called C-terminal fragment of ELKS1; source: E. coli BL21(DE3), purified (Ni2+-NTA, size-exclusion chromatography)
B2: ELKS1_RBD, Rab-binding domain of ELKS1 (residues 849-922) (domain or fragment, rat, UniProt Q811U3 849-922, looked up)
chain: RKHLEEVLEMKQEALLAAISEKDANIALLELSSSKKKTQEEVAALKREKDRLVQQLKQQTQNRMKLMADNYEDD
notes: As used in analytical gel filtration and ITC; source: E. coli BL21(DE3), purified (Ni2+-NTA, size-exclusion chromatography)

Columns and labels:
[1] = molecular target: T1, Rab6B^Q72L, GTPase domain (residues 8-176), constitutively active mutant (mouse, UniProt P61294 8-176, Q72L); test: SEC; analytical gel filtration, Superdex 200 Increase 10/300 GL, 50 mM Tris pH 7.5, 100 mM NaCl, 2 mM MgCl2, 1 mM DTT; conditions: both partners purified
T1 construct: Rab6B, mouse, GenBank NM_173781.4, GTPase domain residues 8-176, with Q72L; Used in analytical gel filtration and ITC; The methods tell of tag cleavage (HRV 3C) only for crystallization, so the Trx-His6 tag was probably still on; also called continuously active mutant Rab6B^Q72L; active form of Rab6B; source: E. coli BL21(DE3), purified (Ni2+-NTA, size-exclusion chromatography)

[2] = molecular target: T1, Rab6B^Q72L, GTPase domain (residues …); test: ITC; MicroCal PEAQ-ITC, 25 °C, 50 mM Tris pH 7.5, 100 mM NaCl, 2 mM MgCl2; typically one protein (400 μM) in the syringe into its binding protein (40 μM) in the cell; conditions: both partners purified

T1 sequence (P61294 8-176 Q72L): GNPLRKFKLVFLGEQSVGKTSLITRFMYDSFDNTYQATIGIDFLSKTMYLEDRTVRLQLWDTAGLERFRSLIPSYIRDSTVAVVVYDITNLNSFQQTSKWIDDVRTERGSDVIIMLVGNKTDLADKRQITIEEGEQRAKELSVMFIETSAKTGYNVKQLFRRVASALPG

Binder | binding result [1] | Kd [2] [µM]
B1 | binds | 
B2 |  | ~8
